Source: patent publication US12545899B2, “Luciferase enzymes for use with thermostable luciferins in bioluminescent assays” (Promega Corporation, priority 2018, dated 2026)
Substitutions are numbered along the chain they refer to. Names and notes keep the numbering of the source.

B1: C9644H7: SEQ ID NO: 97; H244W+T344A+I396K+S193A+N228D+L305F+S306P+I109V+C38R+A316W+T342S+V348I (protein)
chain: MADKNILYGPEPFYPLEDGTAGEQMFDALSRYAAIPGRIALTNAHTKENVLYEEFLKLSCRLAESFKKYGLKQNDTIAVCSENSLQFFLPVIASLYLGIIVAPVNDKYVERELIHSLGIVKPRIVFCSKNTFQKVLNVKSKLKSIETIIILDLNEDLGGYQCLNNFISQNSDSNLDVKKFKPYSFNRDDQVAAIMFSSGTTGLPNGVMLTHKNIVARFSIAKDPTFGDAINPTSAILTVIPFHWGFGMMTTLGYFTCGFRVVLMHTFEEKLFLQSLQDYKVESTLLVPTLMAFLAKSALVEKYDFPHLKEIASGGWPLSKEIGEMVKKRFKLNFVRQGYGLSEATSAILITPKGDAKPGSTGKIVPLHAVKVVDPTTGKILGPNEPGELYFKGPMKMKGYYNNEEATKAIIDNDGWLRSGDIAYYDNDGHFYIVDRLKSLIKYKGYQVAPAEIEGILLQHPYIVDAGVTGIPDEAAGELPAAGVVVQTGKYLNEQIVQDYVASQVSTAKWLRGGVKFLDEIPKGSTGKIDRKVLRQMLEKHTNGHHHHHHHH
B2: C9715F9: SEQ ID NO: 95; H244W+T344A+1396K+S193A+N228D+L305F+S306P+I109V+C38R+A316W+T342S+V348I+K205N (protein)
chain: B1 chain with N205K
B3: C9671D10: SEQ ID NO: 100; H244W+T344A+I396K+S193A+N228D+L305F+S306P+I109V+C38R+F55I+Y108F+A316W+Y339M+T344I (protein)
chain: B1 chain with F55I, N205K
B4: C9673G4: SEQ ID NO: 96; H244W+T344A+I396K+S193A+N228D+L305F+S306P+I109V+C38R+F55I+A316W+T342S+V348I+I396I (protein)
chain: B1 chain with F55I, N205K, A344T, K396I
B5: C9679H10: SEQ ID NO: 99; H244W+T344A+I396K+S193A+N228D+L305F+S306P+I109V+A316W+T344I (protein)
chain: B1 chain with F55I, N205K
B6: C9649G7: SEQ ID NO: 98; H244W+T344A+I396K+S193A+N228D+L305F+S306P+I109V+C38R+F55I+K121Q+A316W+Y339M+T344I+V348I (protein)
chain: B1 chain with F55I, N205K
B7: C2157D2: SEQ ID NO: 74; H244W+T344A+I396K+S193A+N228D+L305F+S306P+I109V+K107N+T289S (protein)
chain: MADKNILYGPEPFYPLEDGTAGEQMFDALSRYAAIPGCIALTNAHTKENVLYEEFLKLSCRLAESFKKYGLKQNDTIAVCSENSLQFFLPVIASLYLGIIVAPVNDKYIERELIHSLGIVKPRIVFCSKNTFQKVLNVKSKLKSIETIIILDLNEDLGGYQCLNNFISQNSDSNLDVKKFKPYSFNRDDQVASIMFSSGTTGLPKGVMLTHKNIVARFSIAKDPTFGNAINPTSAILTVIPFHHGFGMMTTLGYFTCGFRVVLMHTFEEKLFLQSLQDYKVESTLLVPTLMAFLAKSALVEKYDLSHLKEIASGGAPLSKEIGEMVKKRFKLNFVRQGYGLTETTSAVLITPKGDAKPGSTGKIVPLHAVKVVDPTTGKILGPNEPGELYFKGPMKMKGYYNNEEATKAIIDNDGWLRSGDIAYYDNDGHFYIVDRLKSLIKYKGYQVAPAEIEGILLQHPYIVDAGVTGIPDEAAGELPAAGVVVQTGKYLNEQIVQDYVASQVSTAKWLRGGVKFLDEIPKGSTGKIDRKVLRQMLEKHTNGHHHHHHHH
B8: C8523E12: SEQ ID NO: 94; H244W+T344A+I396K+S193A+N228D+L305F+S306P+I109V+C38R+F55I+A316W+T342S+V348I (protein)
chain: B1 chain with R38C, K121Q, N205K, V261A, V287I, W316A, S342T, I348V

Experiments:
[1] = Brightness of additional luciferase enzyme variants with CS0333; type: biochemical; conditions: for luminescence CS0333 BG / luminescence CS0333 DR / Fold improvement over ATG3707, CS0333 BG / Fold improvement over ATG3707, CS0333 DR: Table 7B
Experimental: (§1) Additional luciferase enzyme variants were generated and evaluated for their stability and activity. To evaluate the additional luciferase enzyme variants, 0.005 mg/ml luciferase enzyme variant was mixed with 1 mM ATP+1 mM substrate in either Bright-Glo™ (BG) or Detection Reagent (DR) buffers. […] (Table 7A is colored according to their relative luminescence values within each column across a red to green color spectrum with the lowest values colored red and the highest values colored green.)

[2] = Brightness of additional luciferase enzyme variants with CS0280; type: biochemical; conditions: for luminescence CS0280 BG / luminescence CS0280 DR / Fold improvement over ATG3707, CS0280 BG / Fold improvement over ATG3707, CS0280 DR: Table 7B
Experimental: as §1

[3] = Differential scanning fluorimetry (DSF) analysis; type: physicochemical; set-up: key to DSF Tm: melting temperature in °C (heated 30-95 °C at 1 °C/min); conditions: for DSF Tm (° C.): Table 7B
Experimental: (§2) To conduct the experiment, Sypro Orange (5000×) was diluted in water to 3× and combined with enzymes stored in 50 mM HEPES pH 7.5, 100 mM NaCl, 2 mM EDTA to a final concentration of 5×. Fluorescence was read at 60 second intervals as the reactions were heated at 1° C. per minute from 30-95° C. The change in fluorescence at each minute was calculated and plotted for each temperature in the range.
as §2, with “The luciferase enzyme variants generated were also evaluated using DSF analysis as shown in the representative results provided in Tables 7A and 7B above. To” for “To”, “the experiments,” for “the experiment,”, “in 20” for “in 50”, “7.5, 200” for “7.5, 100”, “NaCl, 1” for “NaCl, 2”

[4] = Kinetic analysis of ATG-3707 variants with CS0333; type: biochemical
Experimental: Additionally, Table 5 (below) includes kinetic analysis of the ATG-3707 variants identified above. Reagent compositions included CS0333 serially diluted 10-fold from 1 mM to 10 fM in reaction buffer with 2 mM ATP. […] Reactions were incubated at 25° C. for 3 min, and luminescence was read and then normalized to ATG-3707 activity tested in parallel. […] Since C2157D2 was selected for improved brightness in CellTiterGlo® buffer over ATG-3707, it still had beneficial properties.

[5] = 1 mM CS0333, Detection Reagent buffer
[6] = 1 mM CS0280, Detection Reagent buffer

| Molecule | luminescence CS0333 BG ([1]; 1 mM CS0333, Bright-Glo buffer) | luminescence CS0333 DR [1, 5] | Fold improvement over ATG3707, CS0333 BG ([1]; Bright-Glo buffer) | Fold improvement over ATG3707, CS0333 DR ([1]; Detection Reagent buffer) | luminescence CS0280 BG ([2]; 1 mM CS0280, Bright-Glo buffer) | luminescence CS0280 DR [2, 6] | Fold improvement over ATG3707, CS0280 BG ([2]; Bright-Glo buffer) | Fold improvement over ATG3707, CS0280 DR ([2]; Detection Reagent buffer) | DSF Tm (° C.) [3] | Km ([4]; BrightGlo) | Vmax (RLU) ([4]; BrightGlo) | Km ([4]; Detection Reagent) | Vmax (RLU) ([4]; Detection Reagent) | Fold-improvement over ATG3707, CS0333 BG ([1]; Table 7A, 1 mM CS0333, Bright-Glo buffer) | Fold-improvement over ATG3707, CS0333 DR ([1]; Table 7A, 1 mM CS0333, Detection Reagent buffer) | Fold-improvement over ATG3707, CS0280 BG ([2]; Table 7A, 1 mM CS0280, Bright-Glo buffer) | Fold-improvement over ATG3707, CS0280 DR ([2]; Table 7A, 1 mM CS0280, Detection Reagent buffer) | DSF Tm ([3]; Table 7A) |
| --- | --- | --- | --- | --- | --- | --- | --- | --- | --- | --- | --- | --- | --- | --- | --- | --- | --- | --- |
| B1 | 15,784,700 | 11,887,900 | 2.97 | 2.79 | 1,642,120 | 83,763 | 2.07 | 2.87 | 59 °C | – | – | – | – | – | – | – | – | – |
| B2 | 18,891,000 | 14,484,700 | 3.55 | 3.40 | 2,040,340 | 245,081 | 2.57 | 8.38 | 68 °C | – | – | – | – | – | – | – | – | – |
| B3 | 8,464,030 | 7,772,660 | 1.59 | 1.82 | 11,877,500 | 1,439,510 | 14.97 | 49.24 | 65 °C | – | – | – | – | – | – | – | – | – |
| B4 | 18,508,700 | 12,268,900 | 3.48 | 2.88 | 1,298,420 | 104,671 | 1.64 | 3.58 | 71 °C | – | – | – | – | – | – | – | – | – |
| B5 | 12,508,600 | 11,647,400 | 2.35 | 2.73 | 7,349,470 | 984,923 | 9.26 | 33.69 | 65 °C | – | – | – | – | – | – | – | – | – |
| B6 | 13,322,000 | 11,733,600 | 2.50 | 2.75 | 7,501,350 | 891,010 | 9.46 | 30.48 | 51 °C | – | – | – | – | – | – | – | – | – |
| B7 | – | – | – | – | – | – | – | – | – | 6.31 µM | 3,053,170 RLU | 97.1 µM | 3,677,773 RLU | 1.16 | 1.52 | 2.36 | 3.08 | 63 |
| B8 | 20,331,700 | 15,418,100 | 3.82 | 3.62 | 1,996,020 | 213,031 | 2.52 | 7.29 | 67 °C | – | – | – | – | – | – | – | – | – |
